How the values were obtained:
[1] = molecular target: Toxoplasma gondii ERK7 kinase domain, ERK7_(2–358); assay: fluorescence polarisation competition; conditions: competition with fluorescein-labeled wild-type AC9
[2] = molecular target: Toxoplasma gondii ERK7 kinase domain, ERK7_(2–358) (Toxoplasma gondii); assay: fluorescence polarisation; competition: unlabeled AC9 constructs titrated against 10 nM fluorescein-AC9 and 100 nM ERK7; single-site inhibition, global fit
[3] = molecular target: APS 609-621 (Rattus norvegicus) (UniProt Q9Z200); conditions: cited from earlier work
[4] = molecular target: Shc 423-435 (Homo sapiens) (UniProt P29353); conditions: cited from earlier work
[5] = molecular target: fluorescein-labeled synthetic MEK2_(4–16) peptide (rat) (rat) (UniProt P36506); assay: fluorescence polarisation; ERK7 titrated against 100 nM fluorescein-labeled synthetic MEK2 4–16 peptide; single-site binding, global fit
[6] = molecular target: fluorescein-labeled AC9_(419–452) with an additional N-terminal Cys (Toxoplasma gondii); assay: fluorescence polarisation; ERK7 2–358 serially diluted against 10 nM fluorescein-AC9 419–452, 20 μL in 384-well plate; single-site binding, global fit of three replicate experiments

Grb2 SH2, sequence (P62993 57-155): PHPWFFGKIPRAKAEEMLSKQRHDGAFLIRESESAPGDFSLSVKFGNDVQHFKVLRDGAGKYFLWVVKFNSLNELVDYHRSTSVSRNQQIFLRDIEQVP

AC9 wild type R421A; K423A
Ki [1]: 63 nM

AC9_(R421A/K423A) (domain or fragment)
fold reduction of affinity against wild-type AC9 [2]: 4 fold

AC9_(W438A) (domain or fragment)
Ki [2]: 1600 nM

Cbl TKB (from UniProt P22681)
Kd [3]: 43 nM

Grb2 SH2 (from UniProt P62993)
Kd [4]: 18 nM

Toxoplasma gondii ERK7 kinase domain, ERK7_(2–358) (domain or fragment)
Kd [5]: 12000 nM
Kd [6]: 34 nM

WT AC9_(401–452) (domain or fragment)
Ki [2]: 15 nM
